# From article PMC4259341
# Assay: western blot of conditioned medium, 24 h
# Conditions: glycan lost; control: wild type
substance,measurement,value
antithrombin: S137A,expression_or_secretion,no change
antithrombin: S137T,expression_or_secretion,no change
